Assay results: patent publication US12371675B2, “Process and microorganism for synthesis of adipic acid from carboxylic acids” (THE GOVERNING COUNCIL OF THE UNIVERSITY OF TORONTO, priority 2015, dated 2025)

B1: PA2932: OYE protein from Pseudomonas aeruginosa PAO1 (protein)
chain: MSNLLLSPLAVGNLALRNRIVMAPMTRSRAQQPGDVPTALNALYYAQRAGAGLIVSEGTQISHLGQGYAYTPGIYSEAQLAGWRQVTEAVHAAGGLIAAQLWHVGRMSHRSLQAGGEAPIAPSPIQAKAQVFIADGQGGGSMAPADAPREMTLEDIRRVRDEFVRAARNALDAGFDLVELHGANGYLIDQFLASASNRRSDAYGGSLENRARFLLEIVDALVAAVGAERVGLRLSPWGTINDMHDDEPEAMTLYLAEALQRRGIAYLHLAEWEWSGGPAYPQGFRERLRERFRAPLIVCGNYDAERAEAILQAGLADAVAIGRPFIANPDLVERIRLGAPLAEANQARFYGGDAAGYTDYPTLGQSATA
B2: PA4356: OYE protein from Pseudomonas aeruginosa PAO1 (protein)
chain: MATLFDPIVLGDLELPNRIVMAPLTRCRADEGRVPNALMAEYYAQRADAGLILSEATAVTPMGVGYPDTPGIWSDDQVRGWSNVTKAVHAAGGRIFLQLWHVGRISDPLYLNGELPVAPSAIAAEGHVSLVRPKRPYVTPRALDTEEIADIVEAYRQGAERAKAAGFDGVEIHGANGYLLDQFLQDSTNKRTDRYGGSIENRARLLLEVTDAAISVWGAQRVGVHLAPRADSHDMGDSNRLETFSHVARELGKRGIAFICAREAQADDSIGVALKKAFGGPYIANEQFTLDSANAILAKGDADAVAFGVPFIANPDLVERLRQGAELNPPRPETFYTGGTEGYLDYPTLA
B3: PP0911: OYE protein from Pseudomonas putida KT2440 (protein)
chain: MTTLFDPIKLGDLQLPNRIIMAPLTRCRADEGRVPNALMAEYYVQRASAGLILSEATSVSPMGVGYPDTPGIWNDEQVRGWNNVTKAVHAAGGRIFLQLWHVGRISHPSYLNGELPVAPSAIQPKGHVSLVRPLSDYPTPRALETEEINDIVEAYRSGAENAKAAGFDGVEIHGANGYLLDQFLQSSTNQRTDRYGGSLENRARLLLEVTDAAIEVWGAQRVGVHLAPRADAHDMGDADRAETFTYVARELGKRGIAFICSREREADDSIGPLIKEAFGGPYIVNERFDKASANAALASGKADAVAFGVPFIANPDLPARLAADAPLNEAHPETFYGKGPVGYIDYPRL
B4: NE2398: OYE protein from Nifrosomonas europaea ATCC 19718 (protein)
chain: MLFNPLQVGSLTLPNRILLAPLTRARADAGHMPNALMAEYYSQRATGGLLISECTMVAPGTSAFVNEPGIYNDAQIAAWRQVTDAVHAKGGRIFMQIWHAGRAAYPGAADGAPIVSSSATAIEGEIHTPQGKVPHAVPRPLTVDEIPGIVAAFAQGARNAIAAGFDGVEVHGANGYLIDQFLRDTPNQRTDAYGGSLENRARLLFEVLTAVTQAIGSERVGLRLSPLNSFNSMKDSDPLALIGFLADRLNAFKLAYLHVMRADFFGVQKADVMPVAREKYKGVLVGNMGYSADEAEAAIAEGRLDAVAFGTAFLANPDLPARIRAKAPLNAPDSNTFYAGGAKGYTDYPTLQLA
B5: LMO2471: OYE protein from Listeria monocytogenes EGD-e (protein)
chain: MSKLFSEYKLKDVTLKNRIVMSPMCMYSVENKDGIATDFHFAHYVSRAAGGTGLVILEATAVQEVGRISEFDLGLWNDEQVPALKKLVGGLHYHGAKAGIQLAHAGRKAVLPGEIVAPSAIAFDEKSDKPVELTKEAIKEVVADFKRAAYRAKEAGFDVIEIHAAHGYLIHQFLSPITNRREDNYGGPAGNRYKILSDIIKAVKEVWDGPIIVRVSATDYAHGGLQLEDHIPFAKWMKADGVELIDVSTGGLVNVAPPVFPGYQVPFADEIRRGAGIATGALGLITRGEQAEEILCNERADLIIVGRELLRNPYFAKDAAKQLGETIEAPKQYSRAWK

Assay: OYE hydrogenation activity screen, NADPH oxidation at 340 nm
Format: biochemical
Details: 1 mM substrate, 0.25 mM NADPH, 2.5 μg protein; cut-off 0.05 U/mg protein; ND = not detected
Protocol: 25 putative OYE genes (Table 1) were cloned based on the Pfam domain of the FMN oxidoreductase family PF00724. Purified OYEs were screened for hydrogenation activity against acrolein, 2-cyclohexn-1-one, cis,cis-muconic acid, trans,trans-muconic acid, and 2-hexendioic acid. Substrate specificity was measured spectrophotometrically in 96-well plates by following incubation for 20 min at room temperature in the anaerobic chamber. Buffers and reagents were also degassed and sparged with Ar. Reaction mixtures contained potassium phosphate (50 mM and pH 7.0), NaCl (10 mM), NADPH (0.25 mM), various substrates (1 mM) and protein (2.5 μg) in a final volume of 200 μL. Enzyme reactions were monitored by following the decrease in absorbance at 340 nm (ε340 nm=6,200/M·cm) as a measure of the conversion of the cofactor NADPH to NADP+.
In the case of B1, the “Activity [U/mg protein] 2-cyclohexen-1-one” value (“Activity” below) is reported as 13 U/mg protein.
With B2 the “Activity” value was “.15 U/mg protein”.
In the case of B3, the “Activity” value is reported as 0.15 U/mg protein.
With B4 the “Activity” value was 0.19 U/mg protein.
In the case of B5, the “Activity” value is reported as 0.08 U/mg protein.
